Data published in patent US20090175858A1 (Merck KGaA, published 2009).

How the values were obtained:
[1] = target: T1, sEGFR K454A/T459A/S460A (UniProt P00533 25-645, limits assumed); experiment: SPR, equilibrium response, mutated sEGFR passed over immobilized Fab72000 [2A]
T1 construct: extracellular domain; Positions are in mature EGFR numbering; also called triple alanine mutant

[2] = target: T2, sEGFR T459A/S460A/K463A (UniProt P00533 25-645, limits assumed); experiment: as above
T2 construct: extracellular domain; Positions are in mature EGFR numbering; also called triple alanine mutant

[3] = target: T3, sEGFR (soluble extracellular region of EGFR), wild-type (UniProt P00533 25-645, limits assumed); experiment: SPR (Biacore 3000), equilibrium response, sEGFR over immobilized Fab72000
T3 construct: extracellular domain; also called EGFR soluble extracellular domain

[4] = target: T4, sEGFRd3 (isolated domain III of sEGFR; amino acids 310-514 of mature EGFR) (UniProt P00533 334-538); experiment: SPR (Biacore 3000), equilibrium response, sEGFRd3 over immobilized Fab72000
T4 construct: range 310-514; The range 310-514 counts on mature EGFR, not on the precursor; also called soluble extracellular EGFR domain III

B1: Fab fragment of matuzumab (Fab72000) (Fab, V domains shown)
VH: QVQLVQSGAEVKKPGASVKVSCKASGYTFTSHWMHWVRQAPGQGLEWIGEFNPSNGRTNYNEKFKSKATMTVDTSTNTAYMELSSLRSEDTAVYYCASRDYDYDGRYFDYWGQGTLVTVSS
VL: DIQMTQSPSSLSASVGDRVTITCSASSSVTYMYWYQQKPGKAPKLLIYDTSNLASGVPSRFSGSGSGTDYTFTISSLQPEDIATYYCQQWSSHIFTFGQGTKVEIKR
notes: also called Fab fragment of EMD 72000
binding result [1]: no binding (tested: 2000 nM) | binding result [2]: no binding (tested: 2000 nM) | Kd [3]: 0.103 µM | Kd [4]: 0.0501 µM
